Measured values reported in PMC7253548.
Residue numbers refer to the chain shown, from its start.

B1: 18.0-HSE (perfect HSE only) (dsDNA)
DNA 1: CTTGGAATAAGCTTCTAGAAACTTCCAGTTTG
DNA 2: CAAACTGGAAGTTTCTAGAAGCTTATTCCAAG
B2: 18.0-HSE-mutant (Mu) (dsDNA)
DNA 1: B1 DNA 1 with G18C, T23A, T24A, C25T
DNA 2: B1 DNA 2 with G8A, A9T, A10T, C15G

Target: OsHsfB4d (Oryza sativa (rice; cv. Zhonghua 11?), UniProt Q10KX8 1-305)
Experiment: EMSA; […], room temperature 20 min, […]; buffer, […]
Details: protein: recombinant; tags: 6xHis (pET-28a); chain copies: 3

Chain of OsHsfB4d (Q10KX8 whole entry): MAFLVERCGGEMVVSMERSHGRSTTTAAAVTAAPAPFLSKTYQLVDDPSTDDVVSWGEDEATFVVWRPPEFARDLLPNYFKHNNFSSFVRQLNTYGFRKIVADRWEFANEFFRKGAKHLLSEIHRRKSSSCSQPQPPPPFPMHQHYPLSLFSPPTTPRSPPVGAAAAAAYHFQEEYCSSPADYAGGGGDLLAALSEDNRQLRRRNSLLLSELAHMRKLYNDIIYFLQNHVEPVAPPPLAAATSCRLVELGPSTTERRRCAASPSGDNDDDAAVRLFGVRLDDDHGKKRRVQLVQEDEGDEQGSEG

| Binder | binding result |
| --- | --- |
| B1 | binds |
| B2 | no binding |
